Source: the nanobody polyreactivity screen of Harvey et al. (2022)

Experiment: yeast display, Sf9 membrane polyspecificity reagent, FACS + sequencing; frameworks hold sequencing errors
Method in brief: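 After 36–48 hours of galactose induction, yeast (Saccharomyces cerevisiae BJ5465) displaying a synthetic nanobody library were stained at 4 °C for 1 hour with 10% biotinylated, detergent-solubilized Sf9 membrane reagent. Streptavidin microbeads enriched the stained cells before FACS sorting into low and high (top ~1%) gates on anti-HA and streptavidin fluorescence. Each clone's polyreactivity label reflects its gate of origin.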

Row | Sequence | polyreactivity (PSR sort gate)
1 | QVQLVESGGVLVQAGGSLRLSCAASGSTFSTNAMGWYRQAPGKEREFVAAITWSGDSTDYADSVKGRFTISRDNAKNTVYLQMNSLKPEDTAVYYCAADFPGFYYVYPGDYWGQGTQVTVSS | low polyreactivity
2 | QVQLVDSGGGLVQAGGSLRLRGAASGRIFFYYAMGWYRQAPGKERELLAAITYSVDSTYYADSVKGRFTISRDNAKNTVYLQMNSLKPEDTAVYYCAADDIHYVIHAYYSSGVDYWGQGTQVTVSS | low polyreactivity
3 | QVQLVESGGGLVQAGGSLRLSCAASGSIFGSYAMGWYRQAPGKERELVAVITSSGNTKYADSVKGRFTISRDNAKNTVYLQMNSLKPEDTAVYYCAARFITWGSQYSFRSMDYWGQGTQVTVSS | high polyreactivity
4 | QVQLVESGGGLVQAGGSLRLTSAASGSIFRYYTMGWYRHAPRKERELVAAISRNGGSTYYADSVKGRFTISRDNAKNSVYLQMNSLKPVDTAVYYCNADGGDWFGYVGMDYWGQGTQVTVSS | high polyreactivity
5 | QVQLVESGGGLVQAGGSLRLSCAASGFTFGVYAMGWYRQAPGKERELVAAITRSGGSTYYADSVKGRFTISRDNAKNTVYLQMNSLKPEDTAVYYCASRARDHYGYWGQGTQVTVSS | high polyreactivity
6 | QVQLVESGGGLVQAGGSLRLSCAASGSTFWGNAMGWYRQAPGKERELVAAIDWSGGRTYYADSVKGRFTISRDNAKNTVYLQMNSLKPEDTAVYYCATRAWRGYGPYDYWGQGTQVTVSS | high polyreactivity
7 | QVQLVESGGGLVQAGGSLRLSCAASGFTFAGYAMGWYRQAPGKERELVAGIRSSGARTNYADSVKGRFTISRDNAKNTVYLQMNSLKPEDTAVYYCNAVRTLYIWWPGYYYWGQGTQVTVSS | low polyreactivity
8 | QVQLVESGGGLVQAGGSLRLSCAASGFILYDNTMGWYRQAPGKEREFVAAIRDSGGSTYYADSVKGRFTISRDNAKNTVYLQMNSLKPEDTAVYYCNTYGSGTHSTGYDYWGQGTQVTVSS | low polyreactivity
9 | QVQLVESGGGLVQAGGSLRLSCAASGSTFTDYAMGWYRQAPGKERELVAAIRFSGGSTYYADSVKGRFTISRDNAKTTVYLQMNSLKPEDTAVYYCAAAGYPWLDSWGQGTQVTVSS | low polyreactivity
10 | QVQLVESGGGLVQAGGSLRLSCAASGFTFKGYTMGWYRQAPGKERELVAAISRSGGRTYYADSVKGRFTISRDNAKNTVYLQMNSLKPEDTAVYYCAAVIIGGHDYWGQGTQVTVSS | high polyreactivity
11 | QVQLVESVGVLVQAGGSLRLSCAASGITFSSYAMGWYRQAPGKERELVAAITRTGGRTYYADSVKGRFTISRDNAKNTVYLQMNRLKPEDTAVYYCAAYYIAYYYWGQGTQVTVSS | high polyreactivity
12 | QVQLEESGGGLVQAGGSLRLSCAASGIIFKLYAMGWYRQAPGKERELVAAITYRGGTTYYADSVKGRFTISRDNAKNTDYLQMNSLKPEDTAVYYCAVAVTSYSSKKLYYWGQGTQVTVSS | low polyreactivity
13 | QVQLVESGGGLVQAGGSLRLSCAASGFIFKWNAMGWYRQAPGKERELVAAITSGGGTYYADSVKGRFTISRDNAKNTVYLQMNSLKPEDTAVYYCAGYGYWGQGTQVTVSS | high polyreactivity
14 | QVQLVESGGGLVQAGGSLRLSCAASGGIFVIYAMGWYRQAPGKERELVAAITWGGGTTYYADSVKGRFTISRDNAKNTVYLQMNSLNPEDTAVYYCNADGFVYGWYYYYEGYDYWGQGTQVTVSS | low polyreactivity
15 | QVQLVESGGGLVQAGGSLRLSCAASGRTFRVYAMGWYRQAPGKEREFVAAISYSGGRTYYADSVKGRFTISRDNAKNTVYLQMNSLKPEDTAVYYCAAKTNRGSYSYDYWGQGTQVTVSS | high polyreactivity
16 | QVQLVESGGGLVPAGGSLRLSCAASGSTFVRYVMGWYRQAPGKERELVAAISRRGGSTYYADSVKGRCTISRDIAKNTVYLQMNSLKPEDTAVYYCADSRGTRTTGYSSYDRFGYWGQGTQVTVSS | high polyreactivity
17 | QVQLVESGGGLVQAGGSLRLSCAASGSIFLHYAMGWYRQAPGKERELVAAISRSGGRTYYADSVKGRFTISRDNAKNTVYLQMNSLKPEDTAVYYCAARVPRYRKDSVWAYYYWGQGPQVTVSS | high polyreactivity
18 | QVQLVESGGGLVQAGGSLRLSCAAYGRIFFNNAMGWYRQAPGKERELVAAINSGGRTNYADSVKGRFTISRDNAKNTVYLQMNSLKPEDTAVYYCNADDYPVWEFDYWGQGTQVTVSS | low polyreactivity
19 | QVQLVESGGGLVQAGGRLRLSCAASGRIFPYYAMGWYRQAPGKEREFVAAITSSGGSTYYADSVKGRFTISRDNAKYTVYLQMNSLIPEDSAVYYCFAVRHFGLYAGRPYDYWGQGTQVTVSS | low polyreactivity
20 | QVQLVESGGGLVQAGGSLRLSCAASGFIFYFYAMGWYRQAPGKERELVAAISWSGGSTYYADSVKGRFTISRDNAKNTDYLQMNSLKPEDTAVYYCAAQSWSGDSTFWRYDYWGQGTQVTVSS | low polyreactivity
21 | QVQLLESGGGLDQARGSLRLSCAASGRTFYGYGMGWSRQAPGKEREFVAAISYSGGSTYYADSVKGRFTISRDNAKNTVYLQMNSLKPEDTAVYYSAARNRGSCYYYWGQGTQVTVSS | high polyreactivity
22 | QVQLVESGGGLVQSGGSLRLSCAASGIIFDSYAMGWYRQAPGKERELVAAISSRGASTYYADSVKGRFTISRDNAKYTVYLQMNSLKPEDTAVYYCNAVYYAYRYGSSYDWGQGTQVTVSS | high polyreactivity

Row | Sequence | polyreactivity (PSR sort gate)
23 | QVQLVESGGGLVHAGCSLRLSCAASVSTFQVYGLGWYRQAPGKEREMVAAISRSGVRTYYADSVKARFTMSRDNAKNTVYLQMNSLKPEDTAVYYCAKTYQSTTSKSGYYYWGQGTQVTVSS | high polyreactivity
24 | QVHLVESGGGLVQAGGSLRLSCSASGSTFNTYAMGWYRQAPGKERELVAAITRGGGGTYYADSVKGRFTISRDNAKNTVYLQMNSLKPEDTAVYYCADKFRYSKYGYWGQGTQVTVSS | high polyreactivity
25 | QVQLVESGGGLVQAGGSLRLSCAATGSTFWPYAMGWYRQAPGKERELVAAIRVIGGSTYYADSVKGRFTISRDNAKNTVYLQMNSLKPEDTAVYYCNAYRPGGARFYARYRYDYCGQGTQVTVSS | low polyreactivity
26 | QVQLVESGGGLVQAGGSLRLSCAASGNIFSAYAMGWYRQAPGKEREFVAAISYSGGNTYYADSVKGRFTISRDNAKNTVYLLMNSLKPEVSAVYYCAARVLNKYYRYGYWGQGTQVTVSS | high polyreactivity
27 | QVQLVESGGGLVQAGGSLRLSCAASGSTFYTYAMGWYRKAPGKERELDAAISWSGGSTYYADSVKGRFTISRDNAKNTVYLQMNSLKPEDTAVYYCAADRPYAGRYWKGYHSALYDYWGQGTQVTVSS | low polyreactivity
28 | QVQLVESGGGLVQAGGSLRLSCAASGRTIASYTMGWYRQAPGKERELVAAISKSGGSTYYADSVKGRFTISRDNAKNTVYLQMNSLKPEDTAVYYCAKRRSGNVRKYDYWGQGTQVTVSS | high polyreactivity
29 | QVQLEESGGGLVQAGGSLRLSCAASGYTFGTYTMGWYRQAPGKERELVAGIDSGGTTNYADSVKGRFTISRDNAKNTVYLQMNSLKPEDTAVYYCTAYHLLIFDYYLGLYYYRGNYYWGQGTQVTVSS | low polyreactivity
30 | QVQLVESGGGLVQAGGSLRLSCAASGFTFSYNSMGRYRQATGKERELVARISRTGGSTNYADSVKGRFTISRDNAKNTVYLQMNSLKPEDTAVYYCGTGYRYTYGSWGQGTQVTVSS | high polyreactivity
31 | QVQLVESGGGLVQAGGSLRLSCAASGLTFQYNAMGWYRQAPGKERELVAANSRSGGRTYYADSVKGRFTISRDNAKNTVYLQLNSLKPEDTAVYYCAARDRSTRSDLTSYSVLYGNYYWGQGTQVTVSS | high polyreactivity
32 | QVQLVESGGGLVQAGGSLRLSCAASGRTFFYYAMGWYRQAPGKERELVAAISTNGGSTYYADSVKGRFTISRDNAKNTVYLQMNSLKPEDTAVYYCNTYATPHRSGGGLGGHYYWGQGTQVTVSS | low polyreactivity
33 | QVQLVESGGGLVQAGGSLRLSCAASGSIFFSNDMGWYRQAPGKERELVASITRDGTSTYADSVKGRFTISRDNAKNTVYLQMNSLKPEETAVYYCAADRYLQGFYGRWHGYDSWGQGTQVTVSS | low polyreactivity
34 | QVQLVESGGGLVQAGGSLRLSCAASGLTFTVYTMVWYRQAPGKERELVATNSWSDGRTYYADSVKGRFTISRDNAKNTVYLQMNSVKPEDTAVYYCATESITWYYFKHEYWGQGTQVTVSS | high polyreactivity
35 | QVQLVESGGGLVQAGGSLRLSCAASGFIFDGNAMGWYRPAPGKERELVAAIRSGGRTNYADSVNGRFTISRDNAKNTVYLQMNSLKPEDTAVYYCAARSIYPYYYRRDNRYYYWGQGTQVTVSS | high polyreactivity
36 | QVQLVESGGGLVQAGGSLRLSCAASGRIFKSYAMGWYRQAPGKERELVAAISRSGGRTYYADSVKGRFTISRDNAKNTVYLQMNSLKPEDTAVYYCAATTFVAPYLGQGTQVTVSS | low polyreactivity
37 | QVQLVESGGGLVQAGGSLRLSCAASGRTFRGNAMGWDRQAPVKERELVAAITWGVGSTYYADSVKGRFTISRDNAKNTVYLQMNSLKPEDTAVYYCATRSYRGRDGFGYWGQGTQVTVSS | high polyreactivity
38 | QVQLVESGGGLVQAGGSLRLSCAASGITFPQYAMGWYRQAPGKERELVAAITSGGSTNYADSVKGRFTISRDNGKNTVYLQMNSLKPEDTGVYYCNTAGYYWLHYTMDYWGQGTQVTVSS | high polyreactivity
39 | QVQLVESGGGLVQAGGSLRLSCAASGIIFSDYAMGWYRQAPGKERELVAAISRNGGSTYYADSVKGRFTISRDNAKNTVYLQMNSLKPEDTAVYYCAATRRYRYNWGQGTQVTVSS | high polyreactivity
40 | QVQLVESGGGLVQAGGSLRLSCAASGIIFNRYAMGWYRQAPGKERELVAAITYSGDNTYYADSVKGRFTISRDNAKNTVYLQMNSLKPEDTAVYYCAAVSSRGGDYYWGQGTQVTVSS | high polyreactivity
41 | QVQLGESGGGIVQAGGSLRLSCAASGIIFYPYTMGWYRQAPGKERELVAAINSGGSTYYADSVKGRFTISRDNAKNTVYLQMNSLKPEDTAVYYCAAEEALDWYDDWIVSYDYWGQGTQVTVSS | low polyreactivity
42 | QVQIVESGGGLVQAGGSLRLSCASSGRIFNTNAMGWYRQAPGKERELVAGITDSGDSTYYADSVKGRFTISRDNAKNTVYLQMNSLKPQDSAVYFCATDPASPYIYYYWGQGTQVTVSS | low polyreactivity
43 | QVQLVESGGGLVHAGRSLRLSCAASGFIFVRNAMGWYRQAPGKERELVAAITRSGGSTSYADSVKGRFTISRDNEKNTVYLQMNSLKPEDTAVYYCAAQYGYWGQGTQVTVSS | high polyreactivity
